Test results reported in paper PMC5463365, “Assembly and use of high-density recombinant peptide chips for large-scale ligand screening is a practical alternative to synthetic peptide libraries” (BMC Genomics, 2017).

What was measured:
[1] = target: 5'FAM-labeled F14.5 peptide; test: fluorescence polarisation; 20 nM 5'FAM-labeled peptide with rising concentrations of Streptavidin/StrepTactin, triplicates; ES2 buffer (100 mM potassium phosphate pH 7.4, 100 μg/ml bovine γ globulin, 0.02% NaN3); at least 2 h at RT or o/n at 4 °C
[2] = target: 5'FAM-labeled Strep-tag II peptide; test: as above

Recombinant StrepTactin, unconjugated
Kd [1]: 44.3 µM | Kd [2]: 0.43 µM
